# Measured values reported in publication PMC5385372.
# Target: sGFP-foldon
# Assay: single-molecule fluorescence brightness analysis; GFP-fused proteins expressed in LTE (2-3 h, 27 °C), diluted about 10 times in buffer A (25 mM HEPES, 50 mM NaCl), 1-100 nanomolar, freely diffusing through a confocal volume, room temperature; also with serial dilution of the plasmid to vary the final expression level
# sGFP-foldon, sequence (P10104 2-487): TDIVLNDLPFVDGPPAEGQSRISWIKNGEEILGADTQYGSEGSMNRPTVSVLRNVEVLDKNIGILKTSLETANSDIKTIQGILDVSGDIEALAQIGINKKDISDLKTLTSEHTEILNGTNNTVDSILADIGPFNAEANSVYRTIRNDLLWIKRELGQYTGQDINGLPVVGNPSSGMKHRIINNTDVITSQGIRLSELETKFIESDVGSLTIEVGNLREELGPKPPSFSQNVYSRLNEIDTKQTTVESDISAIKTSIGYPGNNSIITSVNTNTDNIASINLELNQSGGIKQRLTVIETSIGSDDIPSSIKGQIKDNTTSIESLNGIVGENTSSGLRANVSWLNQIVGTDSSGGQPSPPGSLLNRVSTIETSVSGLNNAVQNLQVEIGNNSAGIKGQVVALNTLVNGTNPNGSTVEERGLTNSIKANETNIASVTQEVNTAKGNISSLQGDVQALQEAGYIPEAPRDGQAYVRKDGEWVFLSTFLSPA
substance,measurement,value
sGFP-foldon (domain or fragment),stoichiometry N,3
